Measurements as given in publication PMC5737966 (Nature structural & molecular biology, 2017).
Like-named read-outs stand apart in the source and are kept apart here.

What was measured:
actin = experiment: MST
[1] = target: heavy chain (HC) of the 2-hep HMM construct of human β-cardiac myosin; experiment: stoichiometry of the purified complex
[2] = target: human β-cardiac short S1 (sS1) with a C-terminal GFP, wild type (human) (UniProt P12883); experiment: MST
[3] = target: R453C human β-cardiac sS1 with a C-terminal GFP (human, UniProt P12883 1-808, R453C); experiment: MST
[4] = target: R249Q human β-cardiac sS1 with a C-terminal GFP (human, UniProt P12883 1-808, R249Q); experiment: MST
[5] = target: R403Q human β-cardiac sS1 with a C-terminal GFP (human, UniProt P12883 1-808, R403Q); experiment: MST
[6] = target: T1, human β-cardiac short S1 (sS1) with a C-terminal GFP, wild type (human, UniProt P12883 1-808); experiment: MST
[7] = target: T1, human β-cardiac short S1 (sS1) with a …; experiment: MST; remark: listed apart in the source
[8] = target: MyBP-C (construct and phosphorylation state not told for these experiments) (human, UniProt Q14896 1-1274); experiment: MST
[9] = target: full-length recombinant human cardiac MyBP-C, nonphosphorylated (human, UniProt Q14896 1-1274); experiment: MST
full-length recombinant human cardiac MyBP-C, nonphosphorylated, sequence (Q14896 whole entry): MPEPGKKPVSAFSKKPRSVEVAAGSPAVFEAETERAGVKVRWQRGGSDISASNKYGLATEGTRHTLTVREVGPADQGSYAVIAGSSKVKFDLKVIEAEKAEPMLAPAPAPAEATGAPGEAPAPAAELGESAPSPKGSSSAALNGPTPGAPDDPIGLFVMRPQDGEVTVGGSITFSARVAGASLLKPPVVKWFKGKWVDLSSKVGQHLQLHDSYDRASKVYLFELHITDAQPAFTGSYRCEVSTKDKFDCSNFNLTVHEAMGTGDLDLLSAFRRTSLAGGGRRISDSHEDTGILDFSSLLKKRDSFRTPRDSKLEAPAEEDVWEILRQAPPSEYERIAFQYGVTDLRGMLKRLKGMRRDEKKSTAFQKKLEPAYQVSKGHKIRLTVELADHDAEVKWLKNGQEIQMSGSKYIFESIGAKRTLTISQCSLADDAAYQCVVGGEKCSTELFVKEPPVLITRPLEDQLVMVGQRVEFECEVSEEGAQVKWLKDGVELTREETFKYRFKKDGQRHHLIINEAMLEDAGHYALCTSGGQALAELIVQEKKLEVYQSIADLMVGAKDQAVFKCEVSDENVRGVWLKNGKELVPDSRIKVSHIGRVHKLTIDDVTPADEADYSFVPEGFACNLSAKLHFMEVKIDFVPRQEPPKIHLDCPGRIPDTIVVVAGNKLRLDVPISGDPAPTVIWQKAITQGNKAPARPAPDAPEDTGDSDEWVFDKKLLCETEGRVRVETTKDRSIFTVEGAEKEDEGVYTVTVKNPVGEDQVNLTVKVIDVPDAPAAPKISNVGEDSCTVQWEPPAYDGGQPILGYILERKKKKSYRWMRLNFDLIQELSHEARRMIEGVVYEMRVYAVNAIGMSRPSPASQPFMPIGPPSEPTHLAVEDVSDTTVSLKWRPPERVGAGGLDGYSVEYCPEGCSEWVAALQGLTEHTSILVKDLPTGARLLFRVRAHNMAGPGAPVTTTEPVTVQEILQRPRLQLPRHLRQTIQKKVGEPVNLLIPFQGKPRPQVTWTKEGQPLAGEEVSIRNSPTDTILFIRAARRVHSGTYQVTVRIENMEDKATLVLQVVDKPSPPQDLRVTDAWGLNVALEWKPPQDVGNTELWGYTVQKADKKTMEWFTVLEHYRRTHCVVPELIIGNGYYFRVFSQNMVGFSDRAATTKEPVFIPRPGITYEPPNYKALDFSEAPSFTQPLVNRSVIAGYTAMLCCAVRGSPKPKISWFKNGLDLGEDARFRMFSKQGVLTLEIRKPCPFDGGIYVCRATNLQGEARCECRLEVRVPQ

MyBP-C (construct and phosphorylation state not told for these experiments), sequence (Q14896 whole entry): as above

Question: With “MyBP-C (construct and phosphorylation state not told for these experiments) (from UniProt Q14896 1-1274) (natural protein)” as the molecule, how does the Kd (actin) read?
Answer: Its Kd is 5 µM.

Question: For “human cardiac myosin essential light chain (ELC) (from UniProt P08590 1-195) (natural protein)”, which stoichiometry N [1] is on record?
Answer: The stoichiometry N was 1.

Question: For actin (natural protein), which Kd [2] is on record?
Answer: The Kd was 0.25 µM.

B1: proximal part of human cardiac myosin subfragment 2 (proximal S2), wild type (domain or fragment, UniProt P12883 841-966, looked up)
chain: KSAEREKEMASMKEEFTRLKEALEKSEARRKELEEKMVSLLQEKNDLQLQVQAEQDNLADAEERCDQLIKNKIQLEAKVKEMNERLEDEEEMNAELTAKKRKLEDECSELKRDIDDLELTLAKVEK
Question: B1 was tested. Which Kd [3] did it give?
Answer: The Kd was greater than 90 µM.

Question: And the Kd [4]?
Answer: Its Kd is greater than 300 µM.

Question: What about the Kd [5] of the same molecule?
Answer: The Kd was 54 ± 4 µM.

Question: And the Kd [6]?
Answer: Its Kd is 46 ± 7 µM.

Question: What about the Kd [7] of the same molecule?
Answer: The Kd was 4 ± 1 µM.

B2: proximal S2 of human cardiac myosin labelled with Cy5 (domain or fragment, UniProt P12883 841-966, looked up)
chain: KSAEREKEMASMKEEFTRLKEALEKSEARRKELEEKMVSLLQEKNDLQLQVQAEQDNLADAEERCDQLIKNKIQLEAKVKEMNERLEDEEEMNAELTAKKRKLEDECSELKRDIDDLELTLAKVEK
modifications: Cy5 (site not stated)
Question: For B2, which Kd [8] is on record?
Answer: The Kd was roughly 7 µM.

B3: R870H mutant proximal S2 of human cardiac myosin (domain or fragment, UniProt P12883 841-966, looked up)
chain: KSAEREKEMASMKEEFTRLKEALEKSEARHKELEEKMVSLLQEKNDLQLQVQAEQDNLADAEERCDQLIKNKIQLEAKVKEMNERLEDEEEMNAELTAKKRKLEDECSELKRDIDDLELTLAKVEK
Question: B3 was tested. Which Kd [6] did it give?
Answer: Its Kd is 59 ± 2 µM.

B4: human β-cardiac short S1 (sS1) labelled with Cy5 on cysteine residues (domain or fragment, UniProt P12883 1-808, looked up)
chain: MGDSEMAVFGAAAPYLRKSEKERLEAQTRPFDLKKDVFVPDDKQEFVKAKIVSREGGKVTAETEYGKTVTVKEDQVMQQNPPKFDKIEDMAMLTFLHEPAVLYNLKDRYGSWMIYTYSGLFCVTVNPYKWLPVYTPEVVAAYRGKKRSEAPPHIFSISDNAYQYMLTDRENQSILITGESGAGKTVNTKRVIQYFAVIAAIGDRSKKDQSPGKGTLEDQIIQANPALEAFGNAKTVRNDNSSRFGKFIRIHFGATGKLASADIETYLLEKSRVIFQLKAERDYHIFYQILSNKKPELLDMLLITNNPYDYAFISQGETTVASIDDAEELMATDNAFDVLGFTSEEKNSMYKLTGAIMHFGNMKFKLKQREEQAEPDGTEEADKSAYLMGLNSADLLKGLCHPRVKVGNEYVTKGQNVQQVIYATGALAKAVYERMFNWMVTRINATLETKQPRQYFIGVLDIAGFEIFDFNSFEQLCINFTNEKLQQFFNHHMFVLEQEEYKKEGIEWTFIDFGMDLQACIDLIEKPMGIMSILEEECMFPKATDMTFKAKLFDNHLGKSANFQKPRNIKGKPEAHFSLIHYAGIVDYNIIGWLQKNKDPLNETVVGLYQKSSLKLLSTLFANYAGADAPIEKGKGKAKKGSSFQTVSALHRENLNKLMTNLRSTHPHFVRCIIPNETKSPGVMDNPLVMHQLRCNGVLEGIRICRKGFPNRILYGDFRQRYRILNPAAIPEGQFIDSRKGAEKLLSSLDIDHNQYKFGHTKVFFKAGLLGLLEEMRDERLSRIITRIQAQSRGVLARMEYKKLLERR
modifications: Cy5-labeled cysteine residues
Question: With B4 as the molecule, how does the Kd [9] read?
Answer: The Kd was 17 ± 2 µM.

B5: human cardiac myosin regulatory light chain (RLC) (natural protein)
chain: MAPKKAKKRAGGANSNVFSMFEQTQIQEFKEAFTIMDQNRDGFIDKNDLRDTFAALGRVNVKNEEIDEMIKEAPGPINFTVFLTMFGEKLKGADPEETILNAFKVFDPEGKGVLKADYVREMLTTQAERFSKEEVDQMFAAFPPDVTGNLDYKNLVHIITHGEEKD
Question: How did the stoichiometry N [1] turn out when B5 was run?
Answer: The stoichiometry N was 1.
